Laboratory results as given in patent publication US20150299335A1 (X BODY, published 2015).

Tests used:
[1] = biological target: T1, HER2 (UniProt P04626 23-652, limits assumed); assay: saturation binding curve, CPM against Her 2 (nM), 0 to 50 nM, plateau about 470 CPM; the text does not name the assay [left graph]
T1 construct: also called receptor tyrosine-protein kinase erbB-2

[2] = biological target: T1, HER2; assay: surface plasmon resonance (Biacore Kinetics), table under the sensorgrams [table at the bottom]
[3] = biological target: T1, HER2; assay: surface plasmon resonance (Biacore)
[4] = biological target: T1, HER2; assay: saturation binding curve, CPM against Her 2 (nM), 0 to 50 nM, plateau about 470 CPM; the text does not name the assay [upper left graph]

Kd [1]: 1.4 nM
Kd [2]: 1.2 nM
koff [2]: 0.000167 s⁻¹
kon [2]: 139000 M⁻¹ s⁻¹
Kd [3]: 1.2 nM
kon [3]: 139000 M⁻¹ s⁻¹
Kd [4]: 1.4 nM
B1: B8 anti-HER2 VH domain (other)
VH: EVQLVESGAEVKEPGASVKVSCKSSGYSFTGNYMHWVRQAPGQGLEWMGWMNPKSGGTYYAQKFQGRVTMTWDTSISTAYMELSGLTSDDTAVYYCARWARGSTSPHGLDVWGQGTLVTVSS
notes: Stand-alone antibody VH domain with no light chain; also called B8 VH domain; B8 VH
